Test results reported in patent US20170342140A1.

Experiments:
[1] = target: glycopeptide B (SEQ ID NO: 21), BSA-PEG4 conjugate; test: antigen solid-phase ELISA, AAL lectin as positive control
[2] = target: non-fucosylated glycopeptide B (SEQ ID NO: 22), BSA-PEG4 conjugate; test: antigen solid-phase ELISA, WGA lectin as positive control

Row | OD450 [1] [OD450] | OD450 [2] [OD450] | Substance
1 | 0.335 | – | AAL lectin (from UniProt P18891 2-313)
2 | – | 3 | WGA lectin
